Laboratory results as given in publication PMC5743566 (Theranostics, 2018).

Key:
Test in all cases: immunostaining of cells or tissue
HBx of HBV genotype A = HBx of HBV genotype A (Hepatitis B virus genotype A, strain …, UniProt P69713, strain)
HBx of HBV genotype D = HBx of HBV genotype D (Hepatitis B virus genotype D, strain …, UniProt P03165, strain)
HBx of HBV genotype C = HBx of HBV genotype C (Hepatitis B virus genotype C, strain …, UniProt P0C686, strain)

Measured: binding result

B1: 9D11 mAb (antibody, V domains shown)
VH: QVQLQQPGAELVRPGASVKLSCKASGYSFTSFWISWVKQRPGQGLEWIAMIHPSDNGIRFNQKFKDKATLTVDKSSSTAYMQLNSPTSEDSAVYFCARAGTATFTYWGQGTLVTVSA
VL: DIQMTQTTSSLSVSLGDRVTISCRASQDISNYLNWYQQKPDGIVKLLIYYTSRLHSGVPSRFSGSGSGTDYSLTISNLEQEDLATYFCQQGNALPWTFGGGTKLEIK
binds: HBx of HBV genotype A | HBx of HBV genotype D | HBx of HBV genotype C
